Patent US20080045451A1, “Novel thymidylate synthase mutants” (priority 2000, published 2008)
Numbering of substitutions follows the chain as printed. In names and notes the source's numbering stands. Several values for one entry are separate records, joined by “and”; a condition that tells them apart may be missing. Equal values may be shown once. Entries after “also recorded” stand apart in the source; their conditions may differ.

Columns and labels:
[1] = Inhibition constants (Ki) for 5-FdUMP from Dixon plot; assay type: biochemical, human; settings: 25° C.
Procedure: TS activity was monitored spectrophotometrically by the increase in absorbance at 340 nm that occurs concomitant with the production of H2 folate (Δε=6400 M^−1 cm^−1). The reaction buffer contained 50 mM TES (pH 7.4), 25 mM NaCl, 6.5 mM formaldehyde, 1 mM EDTA and 150 μM 2-mercaptoethanol. When the concentration of dUMP was varied, a high concentration of (6R)—CH2H4 folate was added (3001200 mM of a racemic mixture); when the concentration of (6R)—CH2H4-folate was varied, the concentration of dUMP was 400 μM. Purified wild type or mutant TS protein was added to initiate the reaction at 25° C. Initial velocity measurements were obtained with a Perkin Elmer Lambda Bio 20 UV/VIS spectrophotometer. Steady-state kinetic parameters were derived by a nonlinear least squares fit of the data to the Michaelis Menten equation with KaleidaGraph 3.0 software (Abelbeck Software, Reading Pa.). […] Two dUMP concentrations (30 μM and 300 μM) were used, and FdUMP concentrations were varied. To initiate reactions, CH2H4-folate was added to yield a final concentration of 300 μM of the active isomer.

E. coli χ2913 cells = assay: Survival of TS-deficient E. coli χ2913 expressing wild type or mutant TS on M9 plates containing 5-FdUR; assay type: cell-based; settings: for resistance to 5-FdUR (survival curves), in words: FIG. 3A-3C, single mutants made by site-directed mutagenesis; for 5-FdUR concentration at which colonies formed on minimal plates: side-by-side comparison, FIG. 3A, 200 nM clones did not grow at 250 nM
Procedure: The resistance of each of the 41 mutants to 5-FdUR is expressed as fold enhancement in survival relative to wild type determined in parallel assays. All assays were carried out in duplicate at varying concentration of 5-FdUR and most comparison were repeated in two or more separate experiments. […] Only those experiments in which the survival of the wild type was lower than 1% were included in this tabulation. The percent survival of the wild type at the indicated concentrations of 5-FdUR is as follows: (a) 0.4% in 0.4 nM; (b) <0.1% in a 150 nM; (c) 0.1% at 150 nM; (d) 0 at 300 nM; (e) 0.5% at 150 nM; (f) 0 at 200 nM; (g) 0.95 at 150 nM.
E. coli χ2913 cells harboring plasmids with random substitutions encoding different amino acids, the TS library, were grown overnight at 37° C. in 2×YT medium containing 50 mg/ml of carbenicillin and 50 mg/ml thymidine. Cultures were diluted 1:100 in the same medium and grown at 37° C. until the OD600 reached 0.6 to 0.8. Aliquots (1 ml) of the exponentially growing cells were pelleted and resuspended in M9 salts and plated on three different media. On 1×YT containing […] of carbenicillin and supplemented with 50 mg/ml of thymidine, essentially all cells harboring the plasmid DNA should be recovered. On M9 plates containing carbenicillin, only cells expressing active TS proteins should grow because the medium lacks thymidine. Drug resistant clones were selected on M9 plates containing carbenicillin and increasing concentrations of 5FdUR essentially as previously described (Landis, D. M., Loeb, L. A., 1998, J. Biol. Chem. 273:25809-25817)
To isolate mutants that render E. coli χ2913 resistant to 5-FdUR, the TS library was plated on M9 minimal medium containing 200 or 300 nM 5-FdUR. […] Resistant colonies were selected and plasmid DNA was isolated and re-transformed into fresh χ2913 cells to confirm that the plasmid was the source of the drug-resistant phenotype.
To obtain a profile of amino acid replacements conferring resistance, the remaining, 3′-proximal third of the cDNA from each of the 33 mutants was sequenced. […] Resistance is recorded as percent survival relative to percent survival of host cells harboring wild type TS at 150 nM 5-FdUR of greater. Expression of TS in 10 of the resistant mutants was analyzed by Western blotting with antiserum directed against human TS. The level of expression of wild type TS was more than 2-fold greater than that of any of the mutants, estimated by visual inspection of the gel (data not shown). The mutant proteins may be more labile than the wild type or more susceptible to proteolytic degradation.

[2] = Steady-state kinetic analysis of purified His-tagged TS proteins; assay type: biochemical, human; settings: 25° C., dUMP 400 μM
Text: To subclone mutant TS fragments into the pH is vector (a modified pUC12 vector provided by A. Hizi), the TS cDNA was PCR-amplified by using HK-MUT5′ and TSXho3′ (5′-[…]-3′, SEQ ID NO: 4). After digestion with NdeI and XhoI, the amplified fragments were ligated into the NdeISalI digested pH is vector. The reconstructed plasmids were verified by both restriction analysis and DNA sequencing. Wild type and mutant TS proteins, as N-terminal hexahistidine fusions, were then purified by metal chelation chromatography on Ni^2+ affinity resin (His Bind resin and buffer kit, Novagen), as previously described, with minor modifications (see Landis, cited above). An overnight culture of χ2913 cells expressing the His-TS fusion protein was diluted 1:100 into 250 ml of 2×YT medium containing carbenicillin and thymidine. […] The concentration of purified TS was determined by using the Bradford assay.
TS activity was monitored spectrophotometrically by the increase in absorbance at 340 nm that occurs concomitant with the production of H2 folate (Δε=6400 M^−1 cm^−1). […] Steady-state kinetic parameters were derived by a nonlinear least squares fit of the data to the Michaelis Menten equation with KaleidaGraph 3.0 software (Abelbeck Software, Reading Pa.). […]

bacterial strain χ2913 = assay: Testing the 5-FU-resistance of TS-mutants: colonies of transfected χ2913 on 5-FdUR selection plates; assay type: cell-based; settings: 200 nM 5-FdUR, FIG. 5
Procedure: The bacterial strain χ2913 was transfected with expressions vectors of the TS-mutants and defined amounts of bacteria in the exponential growth phase were plated on selection plates. The selection plates contained increasing concentrations of 5-fluorodeoxyuridine (0, 75, 150, 200, respectively 300 nM). 5-fluorodeoxyuridine (5-FdUR) is a very effective metabolite, which is generated from 5-fluorouracil in the cell. The selection plates were made of minimal medium, which contained carbenicilline and tetracycline. […] After 36 to 48 hours the number of growing colonies was determined. For this the number of colonies of bacteria, which were transfected with wild type thymidylate synthase was set as 100% and all other numbers of colonies were correspondingly converted to % values.

B1: Mutant 302: human TS mutant, substitutions T53S, Y258F (protein, UniProt P04818 2-313, looked up, variant T53S Y258F)
Thymidylate synthase: PVAGSELPRRPLPPAAQERDAEPRPPHGELQYLGQIQHILRCGVRKDDRTGSGTLSVFGMQARYSLRDEFPLLTTKRVFWKGVLEELLWFIKGSTNAKELSSKGVKIWDANGSRDFLDSLGFSTREEGDLGPVYGFQWRHFGAEYRDMESDYSGQGVDQLQRVIDTIKTNPDDRRIIMCAWNPRDLPLMALPPCHALCQFYVVNSELSCQLYQRSGDMGLGVPFNIASYALLTYMIAHITGLKPGDFIHTLGDAHIFLNHIEPLKIQLQREPRPFPKLRILRKVEKIDDFKAEDFQIEGYNPHPTIKMEMAV
[1]
  Ki for 5-FdUMP, increase over wild type TS: 6 fold
E. coli χ2913 cells; (g) wild type survival 0.95 at 150 nM 5-FdUR
  Survival Mutant/WT (fold enhancement in survival relative to wild type): 220 fold
E. coli χ2913 cells
  resistance to 5-FdUR (survival curves), in words: as resistant or more resistant to elevated concentrations of 5-FdUR than any clone tested
  5-FdUR concentration at which colonies formed on minimal plates: 250 nM
[2]
  Km for CH2H4-folate, fold higher than wild type TS: approximately 10 fold

B2: T51S;G52S (protein)
chain: MPVAGSELPRRPLPPAAQERDAEPRPPHGELQYLGQIQHILRCGVRKDDRSSTGTLSVFGMQARYSLRDEFPLLTTKRVFWKGVLEELLWFIKGSTNAKELSSKGVKIWDANGSRDFLDSLGFSTREEGDLGPVYGFQWRHFGAEYRDMESDYSGQGVDQLQRVIDTIKTNPDDRRIIMCAWNPRDLPLMALPPCHALCQFYVVNSELSCQLYQRSGDMGLGVPFNIASYALLTYMIAHITGLKPGDFIHTLGDAHIYLNHIEPLKIQLQREPRPFPKLRILRKVEKIDDFKAEDFQIEGYNPHPTIKMEMAV
E. coli χ2913 cells
  5-FdUR concentration at which colonies formed on minimal plates: 200 nM

B3: T53S (protein)
chain: B2 chain with S51T, S52G, T53S
E. coli χ2913 cells
  resistance to 5-FdUR (survival curves), in words: less resistant than the double mutant, but more resistant than wild type TS; also recorded: less resistant than Y258F

B4: Y258F: human TS single mutant Y258F made by site-directed mutagenesis (protein)
chain: B2 chain with S51T, S52G, Y258F
[1]
  Ki for 5-FdUMP, increase over wild type TS: 3.1 fold
E. coli χ2913 cells
  resistance to 5-FdUR (survival curves), in words: less resistant than the double mutant, but more resistant than wild type TS

B5: D254A (protein)
chain: B2 chain with S51T, S52G, D254A
E. coli χ2913 cells
  resistance to 5-FdUR (survival curves), in words: higher resistance than wild type TS

B6: D254E (protein)
chain: B2 chain with S51T, S52G, D254E
Bacterial strain χ2913
  survival rate of bacteria transfected with TS expression vector: 80%
E. coli χ2913 cells
  resistance to 5-FdUR (survival curves), in words: higher resistance than wild type TS

B7: D254N (protein)
chain: B2 chain with S51T, S52G, D254N
E. coli χ2913 cells
  resistance to 5-FdUR (survival curves), in words: higher resistance than wild type TS

B8: T51S: human TS single mutant T51S (protein)
chain: B2 chain with S52G
[1]
  Ki for 5-FdUMP, increase over wild type TS: 11 fold

B9: D116A (protein)
chain: B2 chain with S51T, S52G, D116A
E. coli χ2913 cells
  resistance to 5-FdUR (survival curves), in words: yield resistance

B10: M219V (protein)
chain: B2 chain with S51T, S52G, M219V
E. coli χ2913 cells
  resistance to 5-FdUR (survival curves), in words: yield resistance

B11: wild type TS: wild type human thymidylate synthase (SEQ ID NO: 7) (protein, listed as Homo sapiens)
chain: B2 chain with S51T, S52G
Bacterial strain χ2913
  survival rate of bacteria transfected with TS expression vector: no wild type TSWT survived
E. coli χ2913 cells; 0.4 nM 5-FdUR
  percent survival of the wild type: 0.4%
E. coli χ2913 cells; 150 nM 5-FdUR, separate experiments (b), (c), (e), (g)
  percent survival of the wild type: < 0.1% and 0.1% and 0.5% and 0.95%
E. coli χ2913 cells; 200 nM 5-FdUR
  percent survival of the wild type: 0%
E. coli χ2913 cells; 300 nM 5-FdUR
  percent survival of the wild type: 0%
